Substitutions are numbered along the chain they refer to.
Assays:
[1] = molecular target: T1, human CTLA4 expressed on Jurkat T cells (human, UniProt P16410 36-223); test: cell-based or functional assay
[2] = molecular target: T1, human CTLA4 expressed on Jurkat T cells; test: flow cytometry on Jurkat T cells expressing hCTLA4
From the text: After washing, the surface-bound anti-hCTLA4 antibodies were detected with a polyclonal anti-hlgG (Fc-specific) antibody labeled with fluorescein isothiocyanate (FITC)(anti-hlgG-FITC). Binding of anti-hCTLA4 antibodies were detected by flow cytometric analysis. The results were reported a geometric mean fluorescence intensity (MFI) using FlowJo software (FLOWJO, L.L.C., Ashland, Oreg., USA).

[3] = molecular target: T2, CTLA4-ECD_Fc, soluble hCTLA4 comprising the extracellular domain of hCTLA4 fused to an Fc fragment (human, UniProt P16410 36-161); test: flow cytometry; inhibition of CTLA4-ECD_Fc binding to Raji cells (hB7-1/hB7-2)
T2 construct: extracellular domain; not shown: Fc fragment
Experimental: In a first assay, inhibition of hCTLA4 binding to hB7-1 and hB7-2 expressed on the surface of Raji cells was assessed. Raji cells, which are human cells, express high levels of hB7-1 and hB7-2. […] After 30 minutes, 1×10⁵ Raji cells were added to each well and incubated for another 30 minutes. […] IC₅₀'s were calculated using GraphPad Prism software (GraphPad, Inc., La Jolla, Calif., USA).

[4] = molecular target: T3, human PD1 expressed on a cell surface (human, UniProt Q15116 25-288); test: cell-based or functional assay
[5] = molecular target: T3, human PD1 expressed on a cell surface; test: flow cytometry on OKT3-activated human T cells, CD4+ cells
Experimental: (§1) The following experiment tested whether the selected anti-hPD1 antibodies can bind to native PD1 expressed on the surface of activated T cells. Human PBMCs were pre-activated with OKT3 (an anti-CD3 antibody) at a concentration of 1 μg/ml. After three days, the PBMCs, which were mostly activated T cells at this time, were distributed into a 96 well microtiter plate using 0.1×10⁶ cells/well. […] The antibody bound to CD4⁺ T cells and CD4⁻ T cells (which were predominately CD8⁺ T cells) was detected using anti-hlgG-FITC and an anti-CD4 antibody labeled with allophycocyanin (anti-CD4-APC).
(§2) The samples were analyzed by flow cytometry (FACScalibur, BD), and binding was reported as an MFI. EC₅₀'s for binding were calculated using GraphPad Prism software.

[6] = molecular target: T3, human PD1 expressed on a cell surface; test: flow cytometry on OKT3-activated human T cells, CD4- cells
Experimental: as §1, §2

T2 sequence (P16410 36-161): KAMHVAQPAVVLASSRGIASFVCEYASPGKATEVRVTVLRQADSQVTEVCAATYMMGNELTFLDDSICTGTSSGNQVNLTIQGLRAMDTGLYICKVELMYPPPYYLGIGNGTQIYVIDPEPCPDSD
T3 sequence (Q15116 25-288): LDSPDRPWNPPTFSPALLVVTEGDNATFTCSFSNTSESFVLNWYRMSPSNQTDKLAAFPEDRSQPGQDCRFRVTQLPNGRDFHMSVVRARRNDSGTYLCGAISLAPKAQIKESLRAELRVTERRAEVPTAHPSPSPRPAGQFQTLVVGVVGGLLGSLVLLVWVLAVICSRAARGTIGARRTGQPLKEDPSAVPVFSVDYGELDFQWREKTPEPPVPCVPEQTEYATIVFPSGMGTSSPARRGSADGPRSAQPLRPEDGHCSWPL
T1 sequence (P16410 36-223): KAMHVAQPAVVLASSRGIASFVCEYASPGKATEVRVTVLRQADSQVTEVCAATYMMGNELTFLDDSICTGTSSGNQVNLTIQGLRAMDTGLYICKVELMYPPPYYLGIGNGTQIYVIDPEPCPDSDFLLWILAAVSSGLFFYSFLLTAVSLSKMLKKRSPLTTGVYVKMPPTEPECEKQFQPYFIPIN

B1: anti-hCTLA4 antibody 2F1 (antibody, human IgG1, V domains shown)
VH: QVQLVESGGGVVEPGRSLRLSCAASGFTFSSYGMHWVRQAPGKGLEWVAVIWYHRSEKDYADSAKGRFTISRDNSKNTLYLQMNSLRAEDTAVYYCARAGLLGYFDYWGQGTLVTVSS
VL: EIVLTQSPGTLSLSPGERATLSCRASQSINSYLAWYQQKPGQAPRPLIYGVSSRATGIPDRFSGSGSGTDFTLTISRLEPEDFAVYYCQQYGMYPFTFGPGTKVDIK
- IC50, luciferase (RLU), CTLA4 Dual-Cell Reporter Assay (Jurkat cells with hCTLA4 plus Raji cells) [1]: 20.5 nM
- EC50 [2]: 0.276 nM
- IC50 [3]: 9.1 nM

B2: anti-hCTLA4 antibody 1E1 (antibody, human IgG1, V domains shown)
VH: B1 VH with H54N, R55P
VL: B1 VL with N30S, Y94S
- IC50, luciferase (RLU), CTLA4 Dual-Cell Reporter Assay (Jurkat cells with hCTLA4 plus Raji cells) [1]: 28.2 nM
- EC50 [2]: 0.697 nM
- IC50 [3]: 6.3 nM

B3: anti-hCTLA4 antibody 3G1 (antibody, human IgG1, V domains shown)
VH: B1 VH with A23T, H54K, R55S, D59Y, A99G
VL: B1 VL
- IC50, luciferase (RLU), CTLA4 Dual-Cell Reporter Assay (Jurkat cells with hCTLA4 plus Raji cells) [1]: > 340 nM
- EC50 [2]: 3.1 nM
- IC50 [3]: 3.5 nM

B4: anti-hCTLA4 antibody 4H1 (antibody, human IgG1, V domains shown)
VH: B1 VH with A23T, H54N, R55P, E57K, A99G, L102F
VL: B1 VL with I29V, N30S
- IC50, luciferase (RLU), CTLA4 Dual-Cell Reporter Assay (Jurkat cells with hCTLA4 plus Raji cells) [1]: 73.8 nM
- EC50 [2]: 0.189 nM
- IC50 [3]: 8.2 nM

B5: anti-hCTLA4 antibody 5B2 (antibody, human IgG1, V domains shown)
VH: B1 VH with A23T, H54K, R55S
VL: B1 VL with I29L, N30S, P46L
- IC50, luciferase (RLU), CTLA4 Dual-Cell Reporter Assay (Jurkat cells with hCTLA4 plus Raji cells) [1]: > 340 nM
- EC50 [2]: 2.93 nM
- IC50 [3]: 11.5 nM

B6: anti-hCTLA4 antibody 6E3 (antibody, human IgG1, V domains shown)
VH: B1 VH with H54K, R55T
VL: B1 VL with I29V, N30T, Y94S
- IC50, luciferase (RLU), CTLA4 Dual-Cell Reporter Assay (Jurkat cells with hCTLA4 plus Raji cells) [1]: 30 nM
- EC50 [2]: 0.437 nM
- IC50 [3]: 14.1 nM

B7: anti-hCTLA4 antibody 7A4 (antibody, human IgG1, V domains shown)
VH: B1 VH with A23T, H54Q, R55T
VL: B1 VL with I29V, N30S
- IC50, luciferase (RLU), CTLA4 Dual-Cell Reporter Assay (Jurkat cells with hCTLA4 plus Raji cells) [1]: 10.9 nM
- EC50 [2]: 0.217 nM
- IC50 [3]: 19.8 nM

B8: anti-hCTLA4 antibody 8B4 (antibody, human IgG1, V domains shown)
VH: B1 VH with H54Q, R55P, L101F
VL: B1 VL with I29V
- IC50, luciferase (RLU), CTLA4 Dual-Cell Reporter Assay (Jurkat cells with hCTLA4 plus Raji cells) [1]: 19 nM
- EC50 [2]: 0.384 nM
- IC50 [3]: 3.8 nM

B9: anti-hCTLA4 antibody 9C4 (antibody, human IgG1, V domains shown)
VH: B1 VH with H54K, R55S
VL: B1 VL with I29L, M93I
- IC50, luciferase (RLU), CTLA4 Dual-Cell Reporter Assay (Jurkat cells with hCTLA4 plus Raji cells) [1]: 25.3 nM
- EC50 [2]: 0.473 nM
- IC50 [3]: 15.7 nM

B10: anti-hCTLA4 antibody 12G4 (antibody, human IgG1, V domains shown)
VH: B1 VH with H54N, R55T, E57K, A99G
VL: B1 VL with N30T, M93R
- IC50, luciferase (RLU), CTLA4 Dual-Cell Reporter Assay (Jurkat cells with hCTLA4 plus Raji cells) [1]: 13.9 nM
- EC50 [2]: 0.15 nM
- IC50 [3]: 3.5 nM

B11: anti-hPD1 antibody #6 (antibody, human IgG4, V domains shown)
VH: QVQLVQSGAEVKKPGASVKVSCKASGYTFTNYWIHWVRQAPGQGLEWMGEIDPYDSYTNYNQKFKGRVTMTGDTSTSTVYMELSSLTSEDTAVYYCARPGYTYGGMDFWGQGTLVTVSS
VL: DIQMTQSPSSLSASVGDRVTITCRSSQSLFNSGNQKNYLAWYQQKPGKPPKLLIYGASTRESGVPARFSGSGSGTDFTLTISSLQPEDVATYYCQNDHYYPYTFGGGTKVEIK
notes: also called Anti-hPD1 #6; Anti-PD1 #6
- IC50, luciferase (RLU), PD1 dual cell reporter assay (Jurkat cells with hPD1 plus CHO-K1 cells with hPDL1) [4]: 3.85 nM
- EC50 [5]: 0.667 nM
- EC50 [6]: 0.617 nM

B12: anti-hPD1 antibody #2 (antibody, human IgG4, V domains shown)
VH: B11 VH with N31S, I34M, G72V, T74K, T87R, Y101N, F108Y
VL: B11 VL with P49V, E61D, A66Y
notes: also called Anti-hPD1 #2; Anti-PD1 #2
- IC50, luciferase (RLU), PD1 dual cell reporter assay (Jurkat cells with hPD1 plus CHO-K1 cells with hPDL1) [4]: 2.45 nM
- EC50 [5]: 0.398 nM
- EC50 [6]: 0.416 nM

B13: anti-hPD1 antibody #5 (antibody, human IgG4, V domains shown)
VH: B11 VH with I34M, Y54F, G72R, T74K, T87R, Y101F
VL: B11 VL with F30L, P49L, E61D, A66S, P86A
notes: also called Anti-hPD1 #5; Anti-PD1 #5
- IC50, luciferase (RLU), PD1 dual cell reporter assay (Jurkat cells with hPD1 plus CHO-K1 cells with hPDL1) [4]: 3 nM
- EC50 [5]: 0.974 nM
- EC50 [6]: 1.12 nM

B14: anti-hPD1 antibody #13 (antibody, human IgG4, V domains shown)
VH: B11 VH with N31S, G72V, T74K, S77N, Y101L
VL: B11 VL with R24K, F30L, E61D, R67K
notes: also called Anti-hPD1 #13
- EC50 [5]: 0.998 nM
- EC50 [6]: 1.46 nM

B15: anti-hPD1 antibody #14 (antibody, human IgG4, V domains shown)
VH: B11 VH with T74K
VL: B11 VL with R24K, P49L, E61D, A66S
notes: also called Anti-hPD1 #14; Anti-PD1 #14
- IC50, luciferase (RLU), PD1 dual cell reporter assay (Jurkat cells with hPD1 plus CHO-K1 cells with hPDL1) [4]: 2.69 nM
- EC50 [5]: 0.39 nM
- EC50 [6]: 0.449 nM

B16: anti-hPD1 antibody #15 (antibody, human IgG4, V domains shown)
VH: B11 VH with I34M, G72R, S77N, T87R, Y101L
VL: B11 VL with A66Y
notes: also called Anti-hPD1 #15
- EC50 [5]: 0.72 nM
- EC50 [6]: 0.627 nM

B17: anti-hPD1 antibody #8 (antibody, human IgG4, V domains shown)
VH: B11 VH with G72I, T87R, Y101N
VL: DIVMTQSPDSLAVSLGERATINCKSSQSLFISGNQKNYLAWYQQKPGQPPKLLIYGASTRDSGVPDRFSGSGSGTDFTLTISSLQAEDVAVYYCQNNHYYPYTFGGGTKVEIK
notes: also called Anti-hPD1 #8
- EC50 [5]: 0.647 nM
- EC50 [6]: 0.904 nM

B18: anti-hPD1 antibody #9 (antibody, human IgG4, V domains shown)
VH: B11 VH with N31S, I34M, G72I, T74K, Y101F
VL: B17 VL with K24R, F30L
notes: also called Anti-hPD1 #9; Anti-PD1 #9
- IC50, luciferase (RLU), PD1 dual cell reporter assay (Jurkat cells with hPD1 plus CHO-K1 cells with hPDL1) [4]: 3.13 nM
- EC50 [5]: 1.01 nM
- EC50 [6]: 1.48 nM

B19: anti-hPD1 antibody #11 (antibody, human IgG4, V domains shown)
VH: B11 VH with N31S, Y54S, S77N
VL: B17 VL with N22S, K24R
notes: also called Anti-hPD1 #11
- EC50 [5]: 33.7 nM
- EC50 [6]: 24.7 nM

B20: anti-hPD1 antibody #12 (antibody, human IgG4, V domains shown)
VH: B11 VH with I34M, Y54F, G72I, S77N, T87R, Y101F
VL: B17 VL with N22S, K24R, F30L
notes: also called Anti-hPD1 #12
- EC50 [5]: 0.849 nM
- EC50 [6]: 1.16 nM

Source: patent US20190276542A1 (QILU PUGET SOUND BIOTHERAPEUTICS, published 2019)
